Reference: paper PMC2936275 (Biochemistry, 2010)
Several values for one entry are separate records, joined by “and”; a condition that tells them apart may be missing. Equal entries are not always repeated.

Biological target: ONE-GC fragment aa 836-1110 (UniProt P51839 836-1110)
Test: SPR

Chain of ONE-GC fragment aa 836-1110 (P51839 836-1110): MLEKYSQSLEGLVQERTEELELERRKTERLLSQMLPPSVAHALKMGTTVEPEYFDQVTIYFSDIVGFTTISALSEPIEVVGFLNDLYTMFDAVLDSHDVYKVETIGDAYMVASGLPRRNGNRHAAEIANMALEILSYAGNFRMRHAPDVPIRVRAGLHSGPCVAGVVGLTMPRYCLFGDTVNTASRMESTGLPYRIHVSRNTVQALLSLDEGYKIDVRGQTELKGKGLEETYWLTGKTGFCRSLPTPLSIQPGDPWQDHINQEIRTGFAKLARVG

B1: GCAP1 (guanylate cyclase activating protein 1), purified recombinant (natural protein, UniProt P46065 1-205, looked up)
chain: MGNIMDGKSVEELSSTECHQWYKKFMTECPSGQLTLYEFRQFFGLKNLSPWASQYVEQMFETFDFNKDGYIDFMEYVAALSLVLKGKVEQKLRWYFKLYDVDGNGCIDRDELLTIIRAIRAINPCSDSTMTAEEFTDTVFSKIDVNGDGELSLEEFMEGVQKDQMLLDTLTRSLDLTRIVRRLQNGEQDEEGASGRETEAAEADG
B1 was tested, and the EC50 was 500 nM and the Kd was 650 nM and 670 nM.
